Measurements as given in paper PMC12329532.

Target: N-terminally His6-tagged human IDO1 (indoleamine 2,3-dioxygenase 1), purified apo-IDO1 (human) (UniProt P14902)
Sequence (P14902 whole entry): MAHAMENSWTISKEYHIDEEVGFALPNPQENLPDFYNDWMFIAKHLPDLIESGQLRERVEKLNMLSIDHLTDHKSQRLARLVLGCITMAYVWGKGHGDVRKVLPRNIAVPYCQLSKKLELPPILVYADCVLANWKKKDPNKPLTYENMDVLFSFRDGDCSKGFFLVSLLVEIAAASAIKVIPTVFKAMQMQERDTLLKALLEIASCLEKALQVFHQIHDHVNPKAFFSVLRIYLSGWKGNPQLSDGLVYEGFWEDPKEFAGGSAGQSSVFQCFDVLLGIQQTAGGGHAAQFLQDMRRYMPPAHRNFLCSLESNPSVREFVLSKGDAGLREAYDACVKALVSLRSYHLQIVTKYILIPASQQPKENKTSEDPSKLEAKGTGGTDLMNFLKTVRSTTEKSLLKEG

IDO1 catalytic activity after the heme transfer reaction with the TC-GAPDH-heme complex: 2 fold
decrease in heme content of TC-GAPDH (UV-vis) after 30 min at 37 °C with apo-IDO1 and separation by gel filtration: 50%
Substance: human recombinant TC-GAPDH (GAPDH with a tetra-Cys insertion sequence near its heme binding site), wild type, purified (from UniProt P04406 1-335) (enzyme)
